Data published in patent US20220033501A1 (SHANGHAI PHARMAEXPLORER, published 2022).
Each block holds one binder with its values, some of them ahead of it.

How the values were obtained:
[1] = target: T1, TIM-3 protein on human peripheral blood mononuclear lymphocytes (PBMC) (human, UniProt Q8TDQ0 22-301); assay: cell-based or functional assay
T1 sequence: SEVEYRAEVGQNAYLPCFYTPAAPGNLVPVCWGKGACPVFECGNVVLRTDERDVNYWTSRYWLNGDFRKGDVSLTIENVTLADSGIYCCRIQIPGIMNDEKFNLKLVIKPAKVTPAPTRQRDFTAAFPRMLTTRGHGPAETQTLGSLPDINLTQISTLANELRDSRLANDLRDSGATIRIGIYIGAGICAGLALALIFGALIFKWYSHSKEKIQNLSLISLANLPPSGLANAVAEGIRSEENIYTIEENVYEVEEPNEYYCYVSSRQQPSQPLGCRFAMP

[2] = target: T2, human TIM-3 extracellular domain protein with hFc tag (hTIM-3-hFc) (human, UniProt Q8TDQ0 22-200); assay: ELISA, coated human TIM-3 ECD protein, 0.6667 nM antibody
T2 construct: not shown: human IgG Fc fragment (hFc) of the pCpC vector
T2 sequence: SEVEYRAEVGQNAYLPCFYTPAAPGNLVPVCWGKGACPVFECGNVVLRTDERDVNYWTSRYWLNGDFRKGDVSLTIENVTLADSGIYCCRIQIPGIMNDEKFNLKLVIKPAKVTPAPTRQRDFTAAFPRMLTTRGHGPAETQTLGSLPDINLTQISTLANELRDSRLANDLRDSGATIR

[3] = target: T3, human TIM-3 on CHOK1 stable cell line (CHOK1-hTIM-3) (human, UniProt Q8TDQ0 22-301); assay: FACS, CHOK1-hTIM-3 cells, 0.064 nM antibody
T3 sequence: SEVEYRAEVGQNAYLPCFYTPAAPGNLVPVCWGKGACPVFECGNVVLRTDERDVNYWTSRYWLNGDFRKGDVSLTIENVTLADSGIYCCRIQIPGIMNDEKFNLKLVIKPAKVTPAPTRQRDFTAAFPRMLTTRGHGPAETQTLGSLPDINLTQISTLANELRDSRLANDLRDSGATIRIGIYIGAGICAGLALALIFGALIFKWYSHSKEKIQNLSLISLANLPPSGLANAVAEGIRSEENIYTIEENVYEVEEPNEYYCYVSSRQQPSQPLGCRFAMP

[4] = target: T2, human TIM-3 extracellular domain …; assay: ELISA, coated human TIM-3 ECD protein, 0.0067 nM antibody
[5] = target: T3, human TIM-3 on CHOK1 stable cell line …; assay: FACS, CHOK1-hTIM-3 cells, 0.013 nM antibody
[6] = target: T3, human TIM-3 on CHOK1 stable cell line …; assay: FACS, CHOK1-hTIM-3 cells, 0 nM antibody
[7] = target: T4, murine TIM-3 extracellular domain protein with hFc tag (mTIM-3-hFc) (mouse, UniProt Q8VIM0 29-191); assay: ELISA, coated mouse TIM-3 ECD protein, 0.0667 nM antibody
T4 construct: also called mouse TIM-3 extracellular domain protein; not shown: human IgG Fc fragment (hFc) of the pCpC vector
T4 chain: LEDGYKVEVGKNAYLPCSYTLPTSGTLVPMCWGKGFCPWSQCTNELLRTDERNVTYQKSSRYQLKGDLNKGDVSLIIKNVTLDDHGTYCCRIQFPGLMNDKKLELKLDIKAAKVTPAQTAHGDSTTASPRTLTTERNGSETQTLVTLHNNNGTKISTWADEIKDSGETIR

[8] = target: T5, monkey TIM-3 protein with hFc tag (cTIM-3-hFc protein) (monkey; human); assay: ELISA, coated cTIM-3-hFc; antibody 6.6667 nM
T5 construct: Made in HEK293 cells; also called monkey TIM-3 extracellular domain protein; not shown: human IgG Fc fragment (hFc) of the pCpC vector
T5 chain: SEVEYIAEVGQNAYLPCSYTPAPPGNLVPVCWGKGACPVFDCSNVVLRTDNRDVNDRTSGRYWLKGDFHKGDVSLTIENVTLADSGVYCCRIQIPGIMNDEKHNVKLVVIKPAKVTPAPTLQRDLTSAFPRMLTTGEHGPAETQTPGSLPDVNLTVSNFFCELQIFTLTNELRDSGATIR
Excerpt: (§1) The amino acid sequence 22-200 of the extracellular domain of the human TIM-3 protein described in the step of Example 1 (as shown in SEQ ID NO. 71 in the sequence listing) was cloned into a pCpC vector having a human IgG Fc fragment (hFc), and transfected into HEK293 cells. The cell culture medium was collected, and purified to obtain the human TIM-3 protein with hFc tag (herein referred to as hTIM-3-hFc protein). The amino acid sequence 22-201 of the extracellular domain of the monkey TIM-3 protein (as shown in SEQ ID NO. 72 in the sequence listing) was cloned into a pCpC vector having a human IgG Fc fragment (hFc), and transfected into HEK293 cells. The cell culture medium was collected, and purified to obtain the monkey TIM-3 protein with hFc tag (herein referred to as cTIM-3-hFc protein). […] The cell culture medium was collected, and purified to obtain the murine TIM-3 protein with hFc tag (herein referred to as mTIM-3-hFc protein). Purified human, monkey, and mouse TIM-3 extracellular domain proteins (hTIM-3-hFc, cTIM-3-hFc, and mTIM-3-hFc) were diluted with PBS to a final concentration of 1.0 μg/ml and then added to a 96-well ELISA plate with 100 μl per well. The plate was sealed with plastic film and incubated overnight at 4° C. The plate was washed 4 times with the plate washing solution (PBS+0.01% Tween20) on the next day, and added with the blocking solution (PBS+0.01% Tween20+1% BSA) and sealed at room temperature for 1-2 hours. The blocking solution was poured out. 50-100 μl of the antibody sample to be tested was added to each well. The plate was incubated at 37° C. for 1-2 hours, and washed 2-3 times with plate washing solution (PBS+0. 01% Tween20). HRP (horseradish peroxidase) labeled secondary antibody was added. The plate was incubated at 37° C. for 1-2 hours, and washed 2-3 times with plate washing solution (PBS+0. 01% Tween20). […] of TMB substrate was added to each well. After incubated at room temperature for 15-30 minutes, the plate was added with […] stop solution (1.0N HCl) to each well. An ELISA plate reader (TiterMax 384plus, Molecular Device) was used to read the A450 nm value.

[9] = target: T5, monkey TIM-3 protein with hFc tag …; assay: ELISA, coated cTIM-3-hFc; antibody 0.0067 nM
Excerpt: as §1

[10] = target: T5, monkey TIM-3 protein with hFc tag …; assay: ELISA, coated cTIM-3-hFc; antibody 0.0001 nM
Excerpt: as §1

B1: 57F4E5 fully human TIM-3 antibody (human IgG4, kappa) (antibody, V domains shown)
VH: EVQLVESGGGLVQPGGSLRLSCAASGFTFSSYWMSWVRQAPGKGLEWVANIKQDGSEKYYVDSVKGRFTISRDSAKNSLYLQMNSLRAEDTAMYFCARDSNFFDYWGQGTLVTVSS
VL: ETVMTQSPATLSVSPGERATLSCRASQSVSSNLAWYQRKPGQAPRLLIYFSSTRATGIPARFSGSGSGTEFTLTISSLQSEDFAVYYCQQYNNWPLTFGGGTKVEIK
IFN-γ production (donor X); antibody 0.1 µg/ml, N = 1 [1]: 2800 pg/mL | IFN-γ production (donor X); antibody 0.1 µg/ml, N = 2 [1]: 2980 pg/mL | IFN-γ production (donor X); antibody 1 µg/ml, N = 1 [1]: 3550 pg/mL | IFN-γ production (donor X); antibody 1 µg/ml, N = 2 [1]: 3150 pg/mL | IFN-γ production (donor X); antibody 10 µg/ml, N = 1 [1]: 3080 pg/mL | IFN-γ production (donor X); antibody 10 µg/ml, N = 2 [1]: 3340 pg/mL | IFN-γ production (donor X); antibody '0' (4th head as printed), N = 1 [1]: 2870 pg/mL | IFN-γ production (donor X); antibody '0' (4th head as printed), N = 2 [1]: 2740 pg/mL | IFN-γ production (donor X); antibody '0' (5th head as printed), N = 1 [1]: 2160 pg/mL | IFN-γ production (donor X); antibody '0' (5th head as printed), N = 2 [1]: 2400 pg/mL | OD450 [2]: 2.89 | Mean fluorescence intensity [3]: 23.7 | OD450 [4]: 0.23 | Mean fluorescence intensity [5]: 9.6 | Mean fluorescence intensity [6]: 2.9 | OD450 [7]: 0.33

B3: 18D2H2 (TIM-3 antibody purified from hybridoma, chimeric antibody of Example 2) (antibody, V domains shown)
VH: EVQLVESGGDLVQPGGSLRLSCAASGFTFSTYWMTWVRQAPGRGLEWVANIKQDGSAKYYVDSVKGRFTLSRDDAKNSLYLQMNSLRAEDTAVYYCARGSNWFDYWGQGTLVTVSS
VL: ETVMTQSPATLSVSPGERATLSCRANQNVYSNLAWYQQKPGQAPRLLIYDASTRATGFPARFSGSGSGTEFTLTISSLQSEDFAVYYCQQYNNWPLTFGGGTKVEIK
notes: From hybridoma of Harbour H2L2 transgenic mice: human variable regions, rat constant regions
OD450 [8]: 3.34 | OD450 [9]: 0.62 | OD450 [10]: 0.53

B4: 34B6D8 (TIM-3 antibody purified from hybridoma, chimeric antibody of Example 2) (antibody, V domains shown)
VH: EVQLVESGGGLVQPGGSLRLSCAASGFTFSTYWMTWVRQAPGKRLEWVANIKQGGGDKYYVDSVKGRFTISTDNAKNSLYLQMNSLRAEDTAVYYCARGSNWFDPWGQGTLVTVSS
VL: EIVMTQSPATLSMSPGERATLSCRASQSVYDNLAWYQQKPGQAPRLLIYGASTRATGIPARFSGSGSGTEFTLTISSLQSEDFALYYCQQYTHWPITFGQGTRLEIK
notes: as for B3
OD450 [8]: 3.55 | OD450 [9]: 0.78 | OD450 [10]: 0.57

B5: 39E5H1 (TIM-3 antibody purified from hybridoma, chimeric antibody of Example 2) (antibody, V domains shown)
VH: EVQLVESGGGLVQPGGSLRLSCAASGFTFSSYWMSWVRQAPGKGLEWVANIKRGGSERYYVDSVKGRFTISGDNAKNSVYLQMNSLRAEDTAVYYCARGSNWFDPWGQGTLVTVSS
VL: ETVMTQSPAILSVSPGERATLSCRASQSVYSNLAWYQQKLGQAPRLLIYDASTRATGIPARFSGSGSGTEFTLTISSLQSEDFAVYYCQQYNNWPITFGQGTRLEIK
notes: as for B3
OD450 [8]: 3.5 | OD450 [9]: 0.85 | OD450 [10]: 0.57

B6: 57F4E5 (TIM-3 antibody purified from hybridoma, chimeric antibody of Example 2) (antibody, V domains shown)
VH: EVQLVESGGGLVQPGGSLRLSCAASGFTFSSYWMSWVRQAPGKGLEWVANIKQDGSEKYYVDSVKGRFTISRDSAKNSLYLQMNSLRAEDTAMYFCARDSNFFDYWGQGTLVTVSS
VL: ETVMTQSPATLSVSPGERATLSCRASQSVSSNLAWYQRKPGQAPRLLIYFSSTRATGIPARFSGSGSGTEFTLTISSLQSEDFAVYYCQQYNNWPLTFGGGTKVEIK
notes: as for B3
OD450 [8]: 3.48 | OD450 [9]: 1.13 | OD450 [10]: 0.58

B9: 7A4F10 (TIM-3 antibody purified from hybridoma, chimeric antibody of Example 2) (antibody, V domains shown)
VH: EVQLLESGGGLVQPGGSLRLSCAASGFTFRTHLISWVRQAPGKGLEWVAAITGSGGSTYYADSVKGRFIISRDNSKNTLFLQMNSLRAEDTAVYYCAKDGGSGSYDDFWGQGTLVTVSS
VL: ETVLTQSPVTLSLSPGERATLSCRASQSVGSYLAWYQQKPGQAPRLLIYDASNRATGIPARFSGSGSGTDFTLTISSLEPEDFAVYYCQQRSNWPPTFGQGTKVEIK
notes: as for B3
OD450 [8]: 3.12 | OD450 [9]: 0.57 | OD450 [10]: 0.54

Further lines, results first:

IFN-γ production (donor X); antibody 0.1 µg/ml, N = 1 [1]: 2610 pg/mL | IFN-γ production (donor X); antibody 0.1 µg/ml, N = 2 [1]: 2720 pg/mL | IFN-γ production (donor X); antibody 1 µg/ml, N = 1 [1]: 3250 pg/mL | IFN-γ production (donor X); antibody 1 µg/ml, N = 2 [1]: 2890 pg/mL | IFN-γ production (donor X); antibody 10 µg/ml, N = 1 [1]: 3460 pg/mL | IFN-γ production (donor X); antibody 10 µg/ml, N = 2 [1]: 3480 pg/mL | IFN-γ production (donor X); antibody '0' (4th head as printed), N = 1 [1]: 2390 pg/mL | IFN-γ production (donor X); antibody '0' (4th head as printed), N = 2 [1]: 2430 pg/mL | IFN-γ production (donor X); antibody '0' (5th head as printed), N = 1 [1]: 2510 pg/mL | IFN-γ production (donor X); antibody '0' (5th head as printed), N = 2 [1]: 2370 pg/mL | OD450 [2]: 2.74 | Mean fluorescence intensity [3]: 34.5 | OD450 [4]: 0.27 | Mean fluorescence intensity [5]: 13.5 | Mean fluorescence intensity [6]: 2.8 | OD450 [7]: 0.21
B2: 134H3G6 fully human TIM-3 antibody (human IgG4, kappa) (antibody, V domains shown)
VH: EVQLVESGGGLVQPGGSLRLSCAASGFTFSNSWMTWVRQAPGKGLEWVANIKQAGTEKYYVDSVKGRFTISRDNAKNSLYLQMNSLRAEDTAVYYCNSGSNYFDYWGQGTLVTVSS
VL: EIVMTQSPATLSVSPGERATLSCRARQNFYSNLAWYQQKPGQAPRLLIYGASTRATGIPARFSGSGSGTEFTLTISSLQSEDFAVYYCQQYNNWPLTFGGGTKVEIK

OD450 [8]: 3.02 | OD450 [9]: 0.56 | OD450 [10]: 0.54
B7: 134H3G6 (TIM-3 antibody purified from hybridoma, chimeric antibody of Example 2) (antibody, V domains shown)
VH: EVQLVESGGGLVQPGGSLRLSCAASGFTFSNSWMTWVRQAPGKGLEWVANIKQAGTEKYYVDSVKGRFTISRDNAKNSLYLQMNSLRAEDTAVYYCNSGSNYFDYWGQGTLVTVSS
VL: EIVMTQSPATLSVSPGERATLSCRARQNFYSNLAWYQQKPGQAPRLLIYGASTRATGIPARFSGSGSGTEFTLTISSLQSEDFAVYYCQQYNNWPLTFGGGTKVEIK
notes: as for B3

OD450 [8]: 3.45 | OD450 [9]: 0.7 | OD450 [10]: 0.52
B8: 215A8F2 (TIM-3 antibody purified from hybridoma, chimeric antibody of Example 2) (antibody, V domains shown)
VH: QVQLQQWGAGLLKPSETLSLTCTVYGGSFSGYYWNWIRQPPGKGLEWLGEINHSGSTNYNPSLKRRVTISVDTSKNQFSLKLSSVTAADTAVYYCARVYYYGPFDFWGQGTLVTVSS
VL: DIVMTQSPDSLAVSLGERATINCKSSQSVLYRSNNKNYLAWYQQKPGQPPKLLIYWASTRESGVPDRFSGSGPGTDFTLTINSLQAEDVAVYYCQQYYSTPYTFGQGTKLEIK
notes: as for B3
